Source: patent US20070259805A1

Target: MITF-M expressed in HEK293 cells from the pCI mammalian expression vector (human) (UniProt O75030)
Test: cell-based or functional assay

UniProt O75030, sequence (O75030 other isoform, or with tags, fused parts or gaps limits assumed): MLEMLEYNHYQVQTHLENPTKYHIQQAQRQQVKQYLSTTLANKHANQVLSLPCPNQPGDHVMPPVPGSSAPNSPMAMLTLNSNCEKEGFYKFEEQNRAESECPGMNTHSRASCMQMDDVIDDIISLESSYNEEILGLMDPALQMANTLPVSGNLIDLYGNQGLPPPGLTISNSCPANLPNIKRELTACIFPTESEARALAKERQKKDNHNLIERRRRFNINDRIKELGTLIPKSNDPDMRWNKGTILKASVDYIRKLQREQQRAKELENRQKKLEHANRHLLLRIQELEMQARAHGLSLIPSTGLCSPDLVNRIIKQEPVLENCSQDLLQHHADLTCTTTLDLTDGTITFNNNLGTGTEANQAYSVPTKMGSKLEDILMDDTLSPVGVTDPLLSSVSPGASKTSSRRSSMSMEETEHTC

Row | luciferase activity (firefly/renilla) in a reporter assay using BCL2 gene promoter, HEK293 cells, against cells transfected only with the MITF-M gene expression plasmid | Substance
1 | 1.5 fold | CLOCK expressed in HEK293 cells from the pCI mammalian cell expression vector (from UniProt O15516 1-846)
2 | 1.4 fold | carboxy-terminal FLAG-tagged ELK4 protein expressed in HEK293 cells from pCI (from UniProt P28324 1-372)
3 | 1.8 fold | carboxy-terminal FLAG-tagged HLF protein expressed in HEK293 cells from pCI (from UniProt Q16534 1-295)
